Numbering of substitutions follows the chain as printed. Names and notes keep the numbering of the source.

One series addresses human TRF2^TRFH (human) (UniProt Q15554). Nature of the series: flow cytometry protein interaction assay. A general note: A flow cytometer gives signals particle by particle.
The series “crystal structure” deals with the molecule itself. Nature of the series: crystal structure.
The target of series [1] is T1, MBP-tagged TERB1^TRFB – TERB2^1-107 (human, UniProt Q8NA31;Q8NHR7).
T1 sequence 1: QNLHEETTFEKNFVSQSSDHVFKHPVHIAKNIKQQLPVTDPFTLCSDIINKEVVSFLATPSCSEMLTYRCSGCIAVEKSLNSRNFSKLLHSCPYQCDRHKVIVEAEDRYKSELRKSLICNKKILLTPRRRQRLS
T1 sequence 2: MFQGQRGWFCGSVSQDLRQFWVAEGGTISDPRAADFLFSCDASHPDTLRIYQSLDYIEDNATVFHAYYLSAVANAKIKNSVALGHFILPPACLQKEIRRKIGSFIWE
Nature of the series: pull-down.

The target in the next series is T2, GST-TRF1^TRFH (human, UniProt P54274 62-265).
T2 sequence: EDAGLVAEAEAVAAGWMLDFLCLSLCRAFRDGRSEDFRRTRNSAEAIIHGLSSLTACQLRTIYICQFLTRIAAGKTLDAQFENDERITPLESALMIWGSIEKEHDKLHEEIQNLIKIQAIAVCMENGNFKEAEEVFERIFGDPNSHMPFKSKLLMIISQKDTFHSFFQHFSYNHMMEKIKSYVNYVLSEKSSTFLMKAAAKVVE
Nature of the series: pull-down.

Sequence of human TRF2^TRFH (human) (Q15554 whole entry): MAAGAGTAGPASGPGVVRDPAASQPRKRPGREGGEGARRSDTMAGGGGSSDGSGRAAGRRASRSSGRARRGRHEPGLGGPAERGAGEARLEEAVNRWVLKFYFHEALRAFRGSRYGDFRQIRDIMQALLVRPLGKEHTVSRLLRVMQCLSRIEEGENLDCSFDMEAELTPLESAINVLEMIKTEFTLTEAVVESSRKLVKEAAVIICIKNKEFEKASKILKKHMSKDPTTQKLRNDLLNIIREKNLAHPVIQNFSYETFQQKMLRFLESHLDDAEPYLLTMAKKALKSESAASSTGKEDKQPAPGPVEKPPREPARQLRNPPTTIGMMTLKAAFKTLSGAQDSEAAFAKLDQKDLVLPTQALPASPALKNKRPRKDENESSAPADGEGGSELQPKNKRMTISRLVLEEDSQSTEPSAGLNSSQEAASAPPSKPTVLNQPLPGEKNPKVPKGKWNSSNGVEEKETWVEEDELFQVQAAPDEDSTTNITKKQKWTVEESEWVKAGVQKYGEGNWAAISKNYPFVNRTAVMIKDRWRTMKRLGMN

Take “His-Smt3-TERB1^TBM I645E (from UniProt Q8NA31 643-656) (peptide)”: in the series with human TRF2^TRFH (human), the relative IC50 (normalized to TERB1^TBM WT) turned out to be 2.25.

Take “His-Smt3-TERB1^TBM WT (from UniProt Q8NA31 643-656) (peptide)”: the relative IC50 (normalized to TERB1^TBM WT) in the series with human TRF2^TRFH (human) came to 1.

In the case of “His-Smt3-TERB1^TBM R652E (from UniProt Q8NA31 643-656) (peptide)”, the relative IC50 (normalized to TERB1^TBM WT) in the series with human TRF2^TRFH (human) was determined as 1.05.

“His-Smt3-TERB1^TBM T648A (from UniProt Q8NA31 643-656) (peptide)” displayed a relative IC50 (normalized to TERB1^TBM WT) in the series with human TRF2^TRFH (human) of 0.4.

On to “His-Smt3-TERB1^TBM I645F (from UniProt Q8NA31 643-656) (peptide)”, for which the relative IC50 (normalized to TERB1^TBM WT) with human TRF2^TRFH (human) is 2.6.

B1: TERB1^TRFB - TERB2^1-107 complex WT (complex)
chain 1: T1 sequence 1
chain 2: T1 sequence 2
For the molecule B1, the relative IC50 (normalized to TERB1^TRFB - TERB2^1-107 WT) with human TRF2^TRFH (human) was determined as 1.

B2: TERB1^TRFB - TERB2^1-107 I645F (complex)
chain 1: T1 sequence 1 with I123F
chain 2: T1 sequence 2
As for B2, the relative IC50 (normalized to TERB1^TRFB - TERB2^1-107 WT) in the series with human TRF2^TRFH (human) came to 0.8.

B3: TERB1^TRFB - TERB2^1-107 I645E (complex)
chain 1: T1 sequence 1 with I123E
chain 2: T1 sequence 2
Regarding B3, the relative IC50 (normalized to TERB1^TRFB - TERB2^1-107 WT) with human TRF2^TRFH (human) amounted to 0.4.

B4: human TRF1^TRFH (TRF homology domain of TRF1, aa 62-265) (domain or fragment)
chain: T2 sequence
modifications: biotin (biotin maleimide) on cysteines in the flow-cytometry bead assays; unlabelled in the pull-downs and the crystal
On to B4, for which, in “crystal structure”, the stoichiometry N (usually the number of molecules, sites or subunits per partner or assembly) is 2. The binding result in series [1] is listed as “binds”.

As to KKILLTPRRRQRLS [His-Smt3-TERB1^TBM WT], the binding result with GST-TRF1^TRFH is reported as “binds”.

On to KKFLLTPRRRQRLS [His-Smt3-TERB1^TBM I645F], for which, in the series with GST-TRF1^TRFH, the binding result was “binds”.

Source of the values: article PMC5755706 (Nature structural & molecular biology, 2017).
